What was measured:
TagRFP-XWnt8 = molecular target: T1, TagRFP-XWnt8 (Xenopus laevis, UniProt P28026 23-358); test: FRAP in living embryos; EGFP-Noggin4 bleached in a single intercellular space of the animal ectoderm that also holds TagRFP-Wnt8 (quasi-immobile); about 1 μM of each; Kd selected to fit the FRAP kinetics by a diffusion-adsorption model; details: partners not purified
T1 construct: Wnt8 (XWnt8), Xenopus laevis, secreted fusion with TagRFP; also called TagRFP-Wnt8
T1 sequence (looked up): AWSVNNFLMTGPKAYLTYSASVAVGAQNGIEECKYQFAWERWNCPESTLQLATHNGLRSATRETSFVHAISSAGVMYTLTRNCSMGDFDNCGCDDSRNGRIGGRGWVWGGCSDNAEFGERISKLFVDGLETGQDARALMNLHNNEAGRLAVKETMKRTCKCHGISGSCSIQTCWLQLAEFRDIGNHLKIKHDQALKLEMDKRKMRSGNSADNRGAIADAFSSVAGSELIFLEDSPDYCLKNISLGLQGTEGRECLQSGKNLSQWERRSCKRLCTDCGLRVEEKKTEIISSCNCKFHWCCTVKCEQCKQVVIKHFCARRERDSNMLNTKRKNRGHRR

[1] = molecular target: Myc-Noggin4 (Xenopus laevis); test: co-IP; quantitative co-immunoprecipitation (qCoIP): gradually decreasing concentrations of Flag-Wnt8 added to a standard amount of Myc-Noggin4 pre-mixed with anti-Myc resin; bound and unbound Flag-Wnt8 by quantitative Western blot against Flag-BAP standard
[2] = molecular target: 3Myc-His6-Noggin4 (Xenopus laevis); test: SPR; Biacore T200; 3Myc-6His-Noggin4 immobilised on CM5 chip (1,500 RU) by amine coupling; 6His-Wnt8 injected; HBS-EP, 25 °C; equilibrium responses fitted to a 1:1 Langmuir model

B1: EGFP-Noggin4 (natural protein)
chain: MVHILVISWLMTLGTWGPTAICAPTNDLEPHNRTQKDMDIGSLRRQLSSGTRPYSLSLSPQDYHYSPKPKHLRVSRLLRLLGSSFDPFWMSVEQPADYSTSLLSTLSQDLYDGASRYRKKLAQEVQGLNFDSLQLPTELSANASQNIQNEIRQWLVQRASCQLTSTWVDLGTVFWPRWVRHTDCDGTNTACSWPPGMACRQAQFTQIKLLAWHCWMKDTGLGWATQQCTWRQVPYPVVAACKCTCR
modifications: No candidate is Noggin4 (P49011 is Noggin1). The paper reports two pseudoalleles and does not say which was used, so nog4.L is assumed. The Table S1 primers show the mature part starting at GQTNDL …
Work on B1 yielded a Kd (TagRFP-XWnt8) of no more than 100 nM.

B2: Flag-Wnt8 (ligand)
chain: AWSVNNFLMTGPKAYLTYSASVAVGAQNGIEECKYQFAWERWNCPESTLQLATHNGLRSATRETSFVHAISSAGVMYTLTRNCSMGDFDNCGCDDSRNGRIGGRGWVWGGCSDNAEFGERISKLFVDGLETGQDARALMNLHNNEAGRLAVKETMKRTCKCHGISGSCSIQTCWLQLAEFRDIGNHLKIKHDQALKLEMDKRKMRSGNSADNRGAIADAFSSVAGSELIFLEDSPDYCLKNISLGLQGTEGRECLQSGKNLSQWERRSCKRLCTDCGLRVEEKKTEIISSCNCKFHWCCTVKCEQCKQVVIKHFCARRERDSNMLNTKRKNRGHRR
B2 gave a Kd [1] of 10 nM.

B3: Xenopus laevis recombinant Wnt8 labeled by 6-Hys-tag at the N-terminus (ligand)
chain: AWSVNNFLMTGPKAYLTYSASVAVGAQNGIEECKYQFAWERWNCPESTLQLATHNGLRSATRETSFVHAISSAGVMYTLTRNCSMGDFDNCGCDDSRNGRIGGRGWVWGGCSDNAEFGERISKLFVDGLETGQDARALMNLHNNEAGRLAVKETMKRTCKCHGISGSCSIQTCWLQLAEFRDIGNHLKIKHDQALKLEMDKRKMRSGNSADNRGAIADAFSSVAGSELIFLEDSPDYCLKNISLGLQGTEGRECLQSGKNLSQWERRSCKRLCTDCGLRVEEKKTEIISSCNCKFHWCCTVKCEQCKQVVIKHFCARRERDSNMLNTKRKNRGHRR
B3 gave a Kd [2] of 90 nM.
